Measurements reported in patent publication US20140087995A1 (published 2014).
Numbered stars: 1 amine (or outer) side, 2 acyl side, 3 side chain; on linkers, the order of the positions; unused ones are H or OH. Bridge positions count the residues as written; N and C are the ends. Side chains are listed from the residue outwards. Ends that are not written are not given here. * marks the point of attachment. C20 diacid = O=C(O)CCCCCCCCCCCCCCCCCCC(=O)*; γGlu = O=C(O)[C@H](CCC(=O)[*:2])N[*:1]

T1: rat calcitonin receptor (rat, UniProt P32214 25-516)
T1 construct: whole, on cells; Membranes of transiently transfected BHK tk'ts 13 cells (Assay VIII); also called rCTR
T1 sequence (looked up): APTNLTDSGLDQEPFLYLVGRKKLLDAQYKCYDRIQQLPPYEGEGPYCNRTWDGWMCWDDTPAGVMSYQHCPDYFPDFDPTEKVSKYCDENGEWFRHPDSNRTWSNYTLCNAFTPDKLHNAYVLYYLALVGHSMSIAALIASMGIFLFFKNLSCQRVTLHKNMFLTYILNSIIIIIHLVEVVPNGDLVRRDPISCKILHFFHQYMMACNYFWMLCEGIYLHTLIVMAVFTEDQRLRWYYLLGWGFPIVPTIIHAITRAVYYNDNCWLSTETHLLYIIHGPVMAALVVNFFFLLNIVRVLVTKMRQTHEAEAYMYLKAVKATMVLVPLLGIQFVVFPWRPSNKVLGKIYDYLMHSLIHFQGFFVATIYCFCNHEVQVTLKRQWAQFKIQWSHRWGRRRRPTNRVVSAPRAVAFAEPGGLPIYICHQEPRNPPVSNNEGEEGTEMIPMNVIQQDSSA

T2: human calcitonin receptor (human, UniProt P30988 25-474)
T2 construct: whole, on cells; Membranes of a stably transfected BHK cell line (Assay VII); also called hCTR; hCT
T2 sequence (looked up): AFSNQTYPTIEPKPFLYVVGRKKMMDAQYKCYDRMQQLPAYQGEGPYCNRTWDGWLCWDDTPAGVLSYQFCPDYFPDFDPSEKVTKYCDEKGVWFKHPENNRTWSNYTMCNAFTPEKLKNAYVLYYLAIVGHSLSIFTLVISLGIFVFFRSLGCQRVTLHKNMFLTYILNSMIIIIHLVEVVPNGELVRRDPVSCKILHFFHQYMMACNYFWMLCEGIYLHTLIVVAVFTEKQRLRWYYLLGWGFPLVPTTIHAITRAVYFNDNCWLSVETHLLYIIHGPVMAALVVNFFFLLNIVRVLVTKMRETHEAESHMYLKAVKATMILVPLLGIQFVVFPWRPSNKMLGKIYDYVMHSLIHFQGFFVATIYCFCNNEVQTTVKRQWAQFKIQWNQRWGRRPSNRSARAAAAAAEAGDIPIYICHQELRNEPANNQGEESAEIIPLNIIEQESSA

T3: rat amylin receptor (rat calcitonin receptor + rat RAMP 3) (rat, UniProt P32214 25-516; Q9JJ73 23-147)
T3 construct: whole, on cells; Membranes of transiently transfected BHK tk'ts 13 cells (Assay VI); also called rAmylin-R; rat amylin 3(a) receptor
T3 sequence (looked up) 1: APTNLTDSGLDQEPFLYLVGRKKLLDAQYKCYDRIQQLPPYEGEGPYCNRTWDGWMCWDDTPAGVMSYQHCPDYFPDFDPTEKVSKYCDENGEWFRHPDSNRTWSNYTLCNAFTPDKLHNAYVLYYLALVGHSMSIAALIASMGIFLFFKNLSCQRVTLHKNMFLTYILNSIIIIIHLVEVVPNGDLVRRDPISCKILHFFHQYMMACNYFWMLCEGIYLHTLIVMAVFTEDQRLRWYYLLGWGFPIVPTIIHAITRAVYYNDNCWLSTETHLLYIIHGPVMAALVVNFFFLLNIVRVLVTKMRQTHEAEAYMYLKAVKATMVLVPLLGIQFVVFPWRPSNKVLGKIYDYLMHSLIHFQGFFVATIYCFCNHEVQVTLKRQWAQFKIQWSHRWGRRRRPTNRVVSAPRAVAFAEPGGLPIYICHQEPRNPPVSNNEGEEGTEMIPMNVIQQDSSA
T3 sequence (looked up) 2: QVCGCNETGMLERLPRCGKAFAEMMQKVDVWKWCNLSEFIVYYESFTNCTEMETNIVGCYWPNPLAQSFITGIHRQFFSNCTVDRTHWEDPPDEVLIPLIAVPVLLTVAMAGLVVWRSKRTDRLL


What was measured:
rat calcitonin receptor [1] = molecular target: T1, rat calcitonin receptor; assay: ratio IC50 rat calcitonin receptor / IC50 rat amylin receptor (reference)
[2] = molecular target: T2, human calcitonin receptor; assay: ratio IC50 human calcitonin receptor / IC50 human amylin receptor (reference)
Method in brief: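 Membranes (35 ng/μL final) + SPA beads, 50 mM Hepes pH 7.4 buffer with 1 mM CaCl2, 5 mM MgCl₂, 0.1% OA, 0.02% Tween20; 120 min, 25° C, shaking; centrifuged, counted; IC₅₀ by one-site binding competition.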

rat calcitonin receptor [3] = molecular target: T1, rat calcitonin receptor; assay: SPA competition with 125I-calcitonin, membranes of BHK cells with rat calcitonin receptor (Assay VIII)
[4] = molecular target: T3, rat amylin receptor (rat calcitonin …); assay: SPA competition with 125I-rat amylin, membranes of BHK cells with rat calcitonin receptor + rat RAMP3 (Assay VI)

Row | Binder | Ratio rCT/rAmylin binding (rat calcitonin receptor [1]) | Ratio hCT/hAmylin binding [2] | IC50 (rat calcitonin receptor [3]) | IC50 [4]
1 | K([γGlu-C20 diacid])CNTATCATQRLAEFLRHSSPNFGAIPSSTNVGPETY-NH2 (disulfide 2-7; N-terminus assumed; SMILES CC[C@H](C)[C@H](NC(=O)[C@H](C)NC(=O)CNC(=O)[C@H](Cc1ccccc1)NC(=O)[C@H](CC(N)=O)NC(=O)[C@@H]1CCCN1C(=O)[C@H](CO)NC(=O)[C@H](CO)NC(=O)[C@H](Cc1c[nH]cn1)NC(=O)[C@H](CCCNC(=N)N)NC(=O)[C@H](CC(C)C)NC(=O)[C@H](Cc1ccccc1)NC(=O)[C@H](CCC(=O)O)NC(=O)[C@H](C)NC(=O)[C@H](CC(C)C)NC(=O)[C@H](CCCNC(=N)N)NC(=O)[C@H](CCC(N)=O)NC(=O)[C@@H](NC(=O)[C@H](C)NC(=O)[C@@H]1CSSC[C@H](NC(=O)[C@@H](N)CCCCNC(=O)CC[C@H](NC(=O)CCCCCCCCCCCCCCCCCCC(=O)O)C(=O)O)C(=O)N[C@@H](CC(N)=O)C(=O)N[C@@H]([C@@H](C)O)C(=O)N[C@@H](C)C(=O)N[C@@H]([C@@H](C)O)C(=O)N1)[C@@H](C)O)C(=O)N1CCC[C@H]1C(=O)N[C@@H](CO)C(=O)N[C@@H](CO)C(=O)N[C@H](C(=O)N[C@@H](CC(N)=O)C(=O)N[C@H](C(=O)NCC(=O)N1CCC[C@H]1C(=O)N[C@@H](CCC(=O)O)C(=O)N[C@H](C(=O)N[C@@H](Cc1ccc(O)cc1)C(N)=O)[C@@H](C)O)C(C)C)[C@@H](C)O) | 63.2 | 13.3 | 10.4 nM | 0.164 nM
2 | K([γGlu-C20 diacid])CNTATCATQRLAHFLRHSSPNFGAIPSSTPVGPNTY-NH2 (disulfide 2-7; N-terminus assumed; SMILES CC[C@H](C)[C@H](NC(=O)[C@H](C)NC(=O)CNC(=O)[C@H](Cc1ccccc1)NC(=O)[C@H](CC(N)=O)NC(=O)[C@@H]1CCCN1C(=O)[C@H](CO)NC(=O)[C@H](CO)NC(=O)[C@H](Cc1c[nH]cn1)NC(=O)[C@H](CCCNC(=N)N)NC(=O)[C@H](CC(C)C)NC(=O)[C@H](Cc1ccccc1)NC(=O)[C@H](Cc1c[nH]cn1)NC(=O)[C@H](C)NC(=O)[C@H](CC(C)C)NC(=O)[C@H](CCCNC(=N)N)NC(=O)[C@H](CCC(N)=O)NC(=O)[C@@H](NC(=O)[C@H](C)NC(=O)[C@@H]1CSSC[C@H](NC(=O)[C@@H](N)CCCCNC(=O)CC[C@H](NC(=O)CCCCCCCCCCCCCCCCCCC(=O)O)C(=O)O)C(=O)N[C@@H](CC(N)=O)C(=O)N[C@@H]([C@@H](C)O)C(=O)N[C@@H](C)C(=O)N[C@@H]([C@@H](C)O)C(=O)N1)[C@@H](C)O)C(=O)N1CCC[C@H]1C(=O)N[C@@H](CO)C(=O)N[C@@H](CO)C(=O)N[C@H](C(=O)N1CCC[C@H]1C(=O)N[C@H](C(=O)NCC(=O)N1CCC[C@H]1C(=O)N[C@@H](CC(N)=O)C(=O)N[C@H](C(=O)N[C@@H](Cc1ccc(O)cc1)C(N)=O)[C@@H](C)O)C(C)C)[C@@H](C)O) | 72.4 | 24.8 | 9.05 nM | 0.125 nM
3 | K([γGlu-C20 diacid])CNTATCATQRLAEFLRHSSPNFGAIPSSTNVGPNTP-NH2 (disulfide 2-7; N-terminus assumed; SMILES CC[C@H](C)[C@H](NC(=O)[C@H](C)NC(=O)CNC(=O)[C@H](Cc1ccccc1)NC(=O)[C@H](CC(N)=O)NC(=O)[C@@H]1CCCN1C(=O)[C@H](CO)NC(=O)[C@H](CO)NC(=O)[C@H](Cc1c[nH]cn1)NC(=O)[C@H](CCCNC(=N)N)NC(=O)[C@H](CC(C)C)NC(=O)[C@H](Cc1ccccc1)NC(=O)[C@H](CCC(=O)O)NC(=O)[C@H](C)NC(=O)[C@H](CC(C)C)NC(=O)[C@H](CCCNC(=N)N)NC(=O)[C@H](CCC(N)=O)NC(=O)[C@@H](NC(=O)[C@H](C)NC(=O)[C@@H]1CSSC[C@H](NC(=O)[C@@H](N)CCCCNC(=O)CC[C@H](NC(=O)CCCCCCCCCCCCCCCCCCC(=O)O)C(=O)O)C(=O)N[C@@H](CC(N)=O)C(=O)N[C@@H]([C@@H](C)O)C(=O)N[C@@H](C)C(=O)N[C@@H]([C@@H](C)O)C(=O)N1)[C@@H](C)O)C(=O)N1CCC[C@H]1C(=O)N[C@@H](CO)C(=O)N[C@@H](CO)C(=O)N[C@H](C(=O)N[C@@H](CC(N)=O)C(=O)N[C@H](C(=O)NCC(=O)N1CCC[C@H]1C(=O)N[C@@H](CC(N)=O)C(=O)N[C@H](C(=O)N1CCC[C@H]1C(N)=O)[C@@H](C)O)C(C)C)[C@@H](C)O) | 1.1 | 0.5 | 0.206 nM | 0.188 nM

Other lines, results leading:

Row | Ratio rCT/rAmylin binding (rat calcitonin receptor [1]) | Ratio hCT/hAmylin binding [2] | IC50 (rat calcitonin receptor [3]) | IC50 [4] | Binder
4 | 46.5 | 91.8 | 146 nM | 3.14 nM | K([γGlu-C20 diacid])CNTATCATQRLAHFLRHSSPNFGAIPSSTNVGRNTY-NH2 (disulfide 2-7; N-terminus assumed; SMILES CC[C@H](C)[C@H](NC(=O)[C@H](C)NC(=O)CNC(=O)[C@H](Cc1ccccc1)NC(=O)[C@H](CC(N)=O)NC(=O)[C@@H]1CCCN1C(=O)[C@H](CO)NC(=O)[C@H](CO)NC(=O)[C@H](Cc1c[nH]cn1)NC(=O)[C@H](CCCNC(=N)N)NC(=O)[C@H](CC(C)C)NC(=O)[C@H](Cc1ccccc1)NC(=O)[C@H](Cc1c[nH]cn1)NC(=O)[C@H](C)NC(=O)[C@H](CC(C)C)NC(=O)[C@H](CCCNC(=N)N)NC(=O)[C@H](CCC(N)=O)NC(=O)[C@@H](NC(=O)[C@H](C)NC(=O)[C@@H]1CSSC[C@H](NC(=O)[C@@H](N)CCCCNC(=O)CC[C@H](NC(=O)CCCCCCCCCCCCCCCCCCC(=O)O)C(=O)O)C(=O)N[C@@H](CC(N)=O)C(=O)N[C@@H]([C@@H](C)O)C(=O)N[C@@H](C)C(=O)N[C@@H]([C@@H](C)O)C(=O)N1)[C@@H](C)O)C(=O)N1CCC[C@H]1C(=O)N[C@@H](CO)C(=O)N[C@@H](CO)C(=O)N[C@H](C(=O)N[C@@H](CC(N)=O)C(=O)N[C@H](C(=O)NCC(=O)N[C@@H](CCCNC(=N)N)C(=O)N[C@@H](CC(N)=O)C(=O)N[C@H](C(=O)N[C@@H](Cc1ccc(O)cc1)C(N)=O)[C@@H](C)O)C(C)C)[C@@H](C)O, also called compound 85)
5 | 3 | 1.2 | 0.371 nM | 0.125 nM | K([γGlu-C20 diacid])CNTATCATQRLAHFLRHSSPNFGAIPSSTNVGPNTP-NH2 (disulfide 2-7; N-terminus assumed; SMILES CC[C@H](C)[C@H](NC(=O)[C@H](C)NC(=O)CNC(=O)[C@H](Cc1ccccc1)NC(=O)[C@H](CC(N)=O)NC(=O)[C@@H]1CCCN1C(=O)[C@H](CO)NC(=O)[C@H](CO)NC(=O)[C@H](Cc1c[nH]cn1)NC(=O)[C@H](CCCNC(=N)N)NC(=O)[C@H](CC(C)C)NC(=O)[C@H](Cc1ccccc1)NC(=O)[C@H](Cc1c[nH]cn1)NC(=O)[C@H](C)NC(=O)[C@H](CC(C)C)NC(=O)[C@H](CCCNC(=N)N)NC(=O)[C@H](CCC(N)=O)NC(=O)[C@@H](NC(=O)[C@H](C)NC(=O)[C@@H]1CSSC[C@H](NC(=O)[C@@H](N)CCCCNC(=O)CC[C@H](NC(=O)CCCCCCCCCCCCCCCCCCC(=O)O)C(=O)O)C(=O)N[C@@H](CC(N)=O)C(=O)N[C@@H]([C@@H](C)O)C(=O)N[C@@H](C)C(=O)N[C@@H]([C@@H](C)O)C(=O)N1)[C@@H](C)O)C(=O)N1CCC[C@H]1C(=O)N[C@@H](CO)C(=O)N[C@@H](CO)C(=O)N[C@H](C(=O)N[C@@H](CC(N)=O)C(=O)N[C@H](C(=O)NCC(=O)N1CCC[C@H]1C(=O)N[C@@H](CC(N)=O)C(=O)N[C@H](C(=O)N1CCC[C@H]1C(N)=O)[C@@H](C)O)C(C)C)[C@@H](C)O)
6 | 52.2 | 21.2 | 5.43 nM | 0.104 nM | K([γGlu-C20 diacid])CNTATCATQRLAEFLRHSSPNFGAIPSSTNVGPHTY-NH2 (disulfide 2-7)
